Results taken from paper PMC6379078 (Cell, 2018).
Ends that are not written are not given here. * marks the point of attachment. Biotin = O=C1N[C@H]2[C@H](CS[C@H]2CCCCC(=O)*)N1

Target: T1, wheat germ cell extract in vitro translated HA-GLI1 (human, UniProt P08151 1-1106)
T1 sequence (looked up): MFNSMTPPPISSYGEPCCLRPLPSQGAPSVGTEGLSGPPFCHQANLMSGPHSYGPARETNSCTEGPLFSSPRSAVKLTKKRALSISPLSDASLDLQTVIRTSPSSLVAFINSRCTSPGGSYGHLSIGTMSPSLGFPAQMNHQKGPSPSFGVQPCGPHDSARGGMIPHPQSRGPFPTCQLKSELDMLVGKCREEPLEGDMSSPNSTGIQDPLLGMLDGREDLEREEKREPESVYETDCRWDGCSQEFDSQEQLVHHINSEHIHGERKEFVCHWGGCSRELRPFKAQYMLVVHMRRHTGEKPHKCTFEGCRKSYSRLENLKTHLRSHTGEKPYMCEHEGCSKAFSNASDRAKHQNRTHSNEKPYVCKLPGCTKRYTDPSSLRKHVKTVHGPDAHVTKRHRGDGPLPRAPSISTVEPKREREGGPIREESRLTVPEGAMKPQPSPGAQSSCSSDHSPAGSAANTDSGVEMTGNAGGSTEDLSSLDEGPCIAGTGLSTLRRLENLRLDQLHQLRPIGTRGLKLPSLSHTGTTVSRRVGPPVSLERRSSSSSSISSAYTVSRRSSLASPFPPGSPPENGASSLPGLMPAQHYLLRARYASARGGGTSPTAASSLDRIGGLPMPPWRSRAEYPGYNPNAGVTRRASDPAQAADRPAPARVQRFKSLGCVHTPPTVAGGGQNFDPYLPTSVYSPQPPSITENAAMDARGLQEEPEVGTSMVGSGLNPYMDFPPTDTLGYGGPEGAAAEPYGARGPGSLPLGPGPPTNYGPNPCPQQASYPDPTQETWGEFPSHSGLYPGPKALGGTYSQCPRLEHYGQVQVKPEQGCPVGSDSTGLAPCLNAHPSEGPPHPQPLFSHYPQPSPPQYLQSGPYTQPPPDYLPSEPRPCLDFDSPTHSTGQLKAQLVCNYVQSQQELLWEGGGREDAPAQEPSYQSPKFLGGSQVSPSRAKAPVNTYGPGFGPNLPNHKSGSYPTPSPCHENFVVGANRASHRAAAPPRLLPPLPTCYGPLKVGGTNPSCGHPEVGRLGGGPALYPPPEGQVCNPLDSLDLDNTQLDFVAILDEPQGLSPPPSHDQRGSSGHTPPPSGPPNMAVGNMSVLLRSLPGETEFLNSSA
Assay: co-IP

A Kd of 8 µM was found for Biotin-LEDPSVLTKDKLKSELVANNVTLPAGEQRKDVYVQLYLQHLTAR (peptide, UniProt P42166 5-48, looked up) [biotin-LEM-like domain peptide (residues 5–48)] in this work.
